In PMC6587457, “The green microalga Lobosphaera incisa harbours an arachidonate 15S‐lipoxygenase” (Plant Biology (Stuttgart, Germany), 2018):

T1: LiLOX (Lobosphaera incisa, UniProt A0A3G6V563)
T1 construct: full length 994 aa; cloned without N-terminal putative plastid signal peptide of 62 residues (ChloroP); N-terminal His tag, pET28a; E. coli BL21 Star; IMAC and SEC
T1 sequence (A0A3G6V563 63-994): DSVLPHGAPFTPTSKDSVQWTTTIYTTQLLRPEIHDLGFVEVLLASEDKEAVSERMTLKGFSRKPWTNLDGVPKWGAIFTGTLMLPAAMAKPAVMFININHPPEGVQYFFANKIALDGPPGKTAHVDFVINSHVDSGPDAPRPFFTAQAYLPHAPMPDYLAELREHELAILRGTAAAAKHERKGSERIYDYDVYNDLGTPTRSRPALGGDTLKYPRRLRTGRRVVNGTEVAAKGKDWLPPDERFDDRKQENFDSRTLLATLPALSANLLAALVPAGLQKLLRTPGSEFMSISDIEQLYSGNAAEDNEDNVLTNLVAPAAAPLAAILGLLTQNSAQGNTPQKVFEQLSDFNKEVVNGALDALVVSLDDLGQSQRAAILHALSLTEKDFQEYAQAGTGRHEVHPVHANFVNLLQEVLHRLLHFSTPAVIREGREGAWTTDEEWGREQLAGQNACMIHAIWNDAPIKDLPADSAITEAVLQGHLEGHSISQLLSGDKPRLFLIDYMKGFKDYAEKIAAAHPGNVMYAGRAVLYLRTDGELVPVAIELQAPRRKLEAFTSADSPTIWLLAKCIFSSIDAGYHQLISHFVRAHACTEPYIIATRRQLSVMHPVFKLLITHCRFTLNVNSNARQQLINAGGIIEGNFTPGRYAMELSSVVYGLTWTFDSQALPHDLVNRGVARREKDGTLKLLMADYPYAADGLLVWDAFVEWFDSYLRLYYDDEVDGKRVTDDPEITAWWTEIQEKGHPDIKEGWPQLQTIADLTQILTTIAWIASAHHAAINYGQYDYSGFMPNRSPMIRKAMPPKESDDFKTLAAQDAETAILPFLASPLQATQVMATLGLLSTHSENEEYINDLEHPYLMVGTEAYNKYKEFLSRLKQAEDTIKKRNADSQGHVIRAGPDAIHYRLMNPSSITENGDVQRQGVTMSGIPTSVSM


Key:
LiLOX = target: T1, LiLOX; test: absorbance at […] nm (conjugated diene); format: biochemical; settings: Hill equation fit (not Michaelis-Menten), 20 mM Bis-TRIS propane pH 7.5, 30 °C, 1 μg enzyme, 10-100 μM substrate
purified protein = substrate: CCCCC/C=C\C/C=C\C/C=C\C/C=C\CCCC(=O)O; test: purified protein; format: biochemical, Lobosphaera incisa; settings: Hill equation fit (not Michaelis-Menten), 20 mM Bis-TRIS propane pH 7.5, 30 °C, 1 μg enzyme, 10-100 μM substrate

Km (LiLOX) [µM]	Molecule	K0.5 (purified protein) [µM]	kcat (purified protein) [s⁻¹]	kcat/Km (purified protein) [M⁻¹ s⁻¹]
55.5 ± 4.1	CC/C=C\C/C=C\C/C=C\CCCCCCCC(=O)O [18:3(n‐3)]			
31.2 ± 2.78	CCCCC/C=C\C/C=C\CCCCCCCC(=O)O [18:2(n‐6)]			
	LiLOX (Lobosphaera incisa) (protein, full length 994 aa; cloned without N-terminal putative plastid signal peptide of 62 residues (ChloroP); N-terminal His tag, pET28a; E. coli BL21 Star; IMAC and SEC) DSVLPHGAPFTPTSKDSVQWTTTIYTTQLLRPEIHDLGFVEVLLASEDKEAVSERMTLKGFSRKPWTNLDGVPKWGAIFTGTLMLPAAMAKPAVMFININHPPEGVQYFFANKIALDGPPGKTAHVDFVINSHVDSGPDAPRPFFTAQAYLPHAPMPDYLAELREHELAILRGTAAAAKHERKGSERIYDYDVYNDLGTPTRSRPALGGDTLKYPRRLRTGRRVVNGTEVAAKGKDWLPPDERFDDRKQENFDSRTLLATLPALSANLLAALVPAGLQKLLRTPGSEFMSISDIEQLYSGNAAEDNEDNVLTNLVAPAAAPLAAILGLLTQNSAQGNTPQKVFEQLSDFNKEVVNGALDALVVSLDDLGQSQRAAILHALSLTEKDFQEYAQAGTGRHEVHPVHANFVNLLQEVLHRLLHFSTPAVIREGREGAWTTDEEWGREQLAGQNACMIHAIWNDAPIKDLPADSAITEAVLQGHLEGHSISQLLSGDKPRLFLIDYMKGFKDYAEKIAAAHPGNVMYAGRAVLYLRTDGELVPVAIELQAPRRKLEAFTSADSPTIWLLAKCIFSSIDAGYHQLISHFVRAHACTEPYIIATRRQLSVMHPVFKLLITHCRFTLNVNSNARQQLINAGGIIEGNFTPGRYAMELSSVVYGLTWTFDSQALPHDLVNRGVARREKDGTLKLLMADYPYAADGLLVWDAFVEWFDSYLRLYYDDEVDGKRVTDDPEITAWWTEIQEKGHPDIKEGWPQLQTIADLTQILTTIAWIASAHHAAINYGQYDYSGFMPNRSPMIRKAMPPKESDDFKTLAAQDAETAILPFLASPLQATQVMATLGLLSTHSENEEYINDLEHPYLMVGTEAYNKYKEFLSRLKQAEDTIKKRNADSQGHVIRAGPDAIHYRLMNPSSITENGDVQRQGVTMSGIPTSVSM	12.64 ± 1.1	10.1 ± 0.454	799000
